Test results reported in the MegaScale stability set (Tsuboyama et al. 2023).

B1: HEEH_KT_rd6_3546 (parent)
chain: SEEDKEREHWERLNRDFELRVLDTTFIAHHAEEVIKLLRWLEK

Variants of: B1
Assay: folding stability dG (cDNA display proteolysis); higher = more stable
Conditions: PBS, room temperature

Folding stability dG [kcal/mol], by site and new letter:
A28: V 1.51 | N 0.915 | P 0.699 | S 1.15 | Q 0.99 | C 2.23 | R 1.48 | G 1.01 | M 1.84 | H 0.802 | T 1.2 | W 2.14 | I 1.82 | E 0.888 | Y 1.64 | K 1.29 | D 0.777 | F 1.94 | L 1.99
H29: C 1.85 | F 2.21 | I 2.5 | G 1.17 | A 1.49 | K 1.77 | D 1.05 | M 1.98 | L 1.59 | E 1.45
D16: K 1.38 | H 1.93 | N 1.59 | V 2.04 | S 1.57 | M 1.73 | P 1.94 | F 1.96 | T 2.31 | W 2.27 | G 1.47 | A 1.81 | Y 2.13 | E 1.43 | L 2.02 | R 1.76 | Q 1.6 | I 1.98
N14: T 1.8 | R 2.11 | E 1.2 | S 1.96 | Q 1.67 | A 1.84 | P 1.8 | W 2.69 | V 2.21 | I 2.2 | L 2.39 | Y 2.2 | G 1.55 | H 1.58 | K 1.72 | M 2.22 | D 1.1 | F 2.4 | C 2.44
I27: K 0.613 | W 1.88 | C 2.33 | G 0.669 | F 1.58 | R 0.466 | S 0.654 | E 0.508 | P 0.57 | L 1.37 | H 0.648 | T 0.562 | M 1.12 | A 0.784 | N 0.776 | V 0.996 | Q 0.497 | Y 1.25 | D 0.608
T24: I 2.24 | M 1.82 | F 2.01 | W 2.13 | S 1.06 | D 0.925 | Q 1.02 | N 1.28 | R 1.25 | K 1.07 | A 1.41 | P 1.22 | L 2.19 | E 0.926 | H 1.13 | G 0.995 | V 2.13 | Y 1.79
E18: F 2.66 | I 2.34 | S 1.83 | T 2.19 | H 1.79 | M 2.15 | R 1.87 | V 2.17 | Y 2.4 | Q 1.72 | D 1.42 | P 1.52 | L 2.33 | G 1.36 | W 2.88 | N 1.5 | K 1.62 | A 1.79
L19: T 0.795 | M 0.996 | N 0.808 | I 1.39 | E 0.795 | W 1.49 | P 0.862 | S 0.796 | D 0.732 | G 0.617 | R 1.21 | K 0.521 | Y 1.14 | A 0.896 | Q 0.821 | V 1.05 | C 2.03 | H 0.971 | F 1.42
F26: T 0.642 | H 0.83 | D 0.665 | E 0.588 | W 1.7 | V 0.759 | S 0.703 | N 0.663 | Y 1.04 | K 0.504 | I 0.875 | M 0.674 | G 0.568 | A 0.696 | L 0.925 | P 0.393 | Q 0.576 | R 0.974
L22: F 1.42 | T 0.948 | I 1.53 | Q 0.891 | W 1.35 | M 1.3 | K 0.899 | P 0.989 | S 0.925 | H 0.824 | N 1.06 | A 1.06 | G 1.48 | Y 1.67 | E 0.622 | D 0.869 | V 1.18 | R 1.07
D23: V 3 | T 2.27 | H 2.01 | W 2.85 | Q 1.64 | I 3.03 | R 1.87 | N 1.45 | K 1.6 | M 2.76 | G 1.64 | E 1.29 | F 3.18 | A 2.35 | Y 2.92 | S 1.94 | P 1.35 | L 2.86
F17: P 0.774 | Y 1.31 | W 1.55 | K 0.798 | E 0.738 | V 0.83 | L 1.14 | R 0.912 | I 1.1 | D 0.606 | A 0.719 | T 0.782 | G 0.579 | S 0.873 | M 1.01 | N 0.718 | H 0.86 | Q 0.444
E11: N 1.59 | M 1.9 | Y 2.17 | R 2.11 | W 2.37 | T 1.91 | Q 1.73 | P 1.71 | S 2.16 | V 1.52
R15: S 1.25 | V 2.08 | Q 1.08 | G 1.29 | L 2.07 | C 2.36 | W 2.45 | H 1.42 | E 1.23 | N 1.26 | K 1.25 | A 1.55 | M 1.75 | T 1.4 | D 1.22 | F 2.37 | I 2.41 | P 1.11 | Y 1.84
V21: Y 1.5 | W 1.95 | S 1.16 | A 1.33 | H 1.22 | K 1.03 | D 1.09 | N 1.23 | R 1.41 | I 1.84 | T 1.27 | Q 1.3 | F 1.72 | E 1.06 | L 1.85 | P 0.85 | M 1.41 | G 1.49
T25: N 1.26 | A 1.46 | E 1.31 | W 2.16 | K 1.16 | Q 0.911 | M 1.36 | D 1.2 | S 1.52 | G 0.905 | P 0.992 | I 1.7 | F 2.35 | H 1.29 | R 1.41 | C 1.75 | Y 1.65 | L 2.18 | V 1.61
L13: D 1.24 | H 1.15 | Q 0.972 | Y 1.77 | N 1.43 | I 1.53 | R 1.88 | A 1.17 | K 1.4 | W 1.75 | E 0.952 | F 1.7 | S 1.26 | V 1.39 | P 1.14 | M 1.36 | T 1.52 | G 1.16
R12: N 1.35 | M 1.64 | F 1.76 | A 1.32 | V 1.37 | S 1.43 | G 1.16 | K 1.29 | Q 1.26 | T 1.53 | E 1.17 | H 1.15 | P 1.08 | W 2.2 | C 1.6 | D 1.65 | L 1.55 | I 1.41 | Y 1.66
R20: G 1.29 | F 2.21 | S 1.35 | Q 1.05 | W 2.38 | I 1.99 | N 1.23 | P 0.684 | C 2.37 | K 1.36 | L 1.93 | H 1.39 | Y 2.39 | T 1.4 | D 1.18 | V 1.68 | E 0.819 | A 1.04 | M 1.63
